Laboratory results as given in patent US20200157248A1.
Numbering of substitutions follows the chain as printed.

B1: VHH clone 8GO9 (VHH)
VHH: QVQLVESGGGLVQAGGSLRLSCAASGRTFSRYGMSWFRQAPGKEREFVATISRGGSSTNYADSTKGRFTVSRDNAKNTVVLQMNSLKPEDTAVYYCAADTNWPVGAYEYWGQGTQVTVSS
B2: VHH clone 8B03 (VHH)
VHH: EVQLVESGGGLVQPGGSLRLSCRASGAIFSINHMGWYRQAPGKQRELVATITSGGSTNYADSVKGRFTISRDNAKNTVYLQMNSLKPEDTAVYSCNLDWTTGWGSRRDYWGQGTQVTVSS
B3: VHH clone 8G1 (VHH)
VHH: B2 VHH with E1Q
B4: VHH clone 8G11 (VHH)
VHH: EVQLVESGGGLVQAGGSLRLSCAASGRTFDIYTMGWFRQVPGKEREFVADIGRAGGTTHYADSVKGRFAISRDNANDAVHLQMNSLKPEDTAVYYCATKVVPRAGRRLLDYDYWGQGTQVTVSS
B5: VHH clone 8G12 (VHH)
VHH: EVQLVESGGGLVRAGGSLRLSCAASGSIFGTTNMGWYRQAPGTQRDLVATINNGGITNYADSVKGRFTISTDYTKNTVYLQMDRLKPEDTAVYYCNAEYHFRPPSWGQGTQVTVSS

The binders below were run against Fwt (assay: ELISA, VHH on coated antibody).

ELISA OD | Binder
0.114 OD | B1
0.069 OD | B2
0.079 OD | B3
0.073 OD | B4
0.063 OD | B5

The binders below were run against mutC4/Cmut4 (assay: ELISA, VHH on coated antibody).

ELISA OD | Binder
0.068 OD | B1
0.068 OD | B2
0.068 OD | B3
0.054 OD | B4
0.2 OD | B5

The binders below were run against mutF4/Fmut4 (assay: ELISA, VHH on coated antibody).

ELISA OD | Binder
0.153 OD | B1
0.221 OD | B2
0.128 OD | B3
0.123 OD | B4
0.159 OD | B5
